Source: paper PMC5584245
Read-outs that look alike come from different tables or passages of the source.

How the values were obtained:
[1] = target: hG7-BM1 (hVH-B1, hVL-B1) (human); test: SPR; Biacore X100; CD24-GST flowed over immobilized antibody; 1:1 binding model; procedure as in ref. 45
[2] = target: hG7-BM1 (hVH-B1, hVL-B1) (human); test: as above; remark: listed apart in the source

Sequence of hG7-BM1 (hVH-B1, hVL-B1) (human) (heavy, as listed by the source, chain 1 of 2): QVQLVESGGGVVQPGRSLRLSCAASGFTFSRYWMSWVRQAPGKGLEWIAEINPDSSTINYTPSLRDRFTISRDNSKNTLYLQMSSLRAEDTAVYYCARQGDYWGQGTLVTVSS
Sequence of hG7-BM1 (hVH-B1, hVL-B1) (human) (light, as listed by the source, chain 2 of 2): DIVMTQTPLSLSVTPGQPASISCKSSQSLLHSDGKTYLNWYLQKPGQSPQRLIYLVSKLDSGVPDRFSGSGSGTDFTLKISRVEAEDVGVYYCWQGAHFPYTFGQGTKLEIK

## SETTTGTSSNSSQSTSNSGLAPNPTNATTKAAG (natural protein) [CD24-GST]
[1]
  Kd: 1.64 nM
  koff: 0.000764 s⁻¹
  kon: 465000 M⁻¹ s⁻¹
[2]
  Kd: 0.164 nM
